From IntAct's records for PubMed 17555716

B1: 26S proteasome regulatory subunit 6B homolog (Saccharomyces cerevisiae), P33298 (parent)
chain: MEELGIVTPVEKAVEEKPAVKSYASLLAQLNGTVNNNSALSNVNSDIYFKLKKLEKEYELLTLQEDYIKDEQRHLKRELKRAQEEVKRIQSVPLVIGQFLEPIDQNTGIVSSTTGMSYVVRILSTLDRELLKPSMSVALHRHSNALVDILPPDSDSSISVMGENEKPDVTYADVGGLDMQKQEIREAVELPLVQADLYEQIGIDPPRGVLLYGPPGTGKTMLVKAVANSTKAAFIRVNGSEFVHKYLGEGPRMVRDVFRLARENAPSIIFIDEVDSIATKRFDAQTGSDREVQRILIELLTQMDGFDQSTNVKVIMATNRADTLDPALLRPGRLDRKIEFPSLRDRRERRLIFGTIASKMSLAPEADLDSLIIRNDSLSGAVIAAIMQEAGLRAVRKNRYVILQSDLEEAYATQVKTDNTVDKFDFYK
partner: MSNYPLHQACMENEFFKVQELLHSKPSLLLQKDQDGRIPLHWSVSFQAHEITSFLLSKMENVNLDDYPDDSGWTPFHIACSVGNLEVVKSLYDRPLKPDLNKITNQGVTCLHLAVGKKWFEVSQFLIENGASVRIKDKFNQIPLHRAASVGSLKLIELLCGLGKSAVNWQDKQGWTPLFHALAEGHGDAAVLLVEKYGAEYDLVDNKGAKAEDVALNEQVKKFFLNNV

Variants of: B1
Conditions: with psd10_yeast NAS6, P50086

| effect of a mutation on the interaction | Variant |
| --- | --- |
| disrupting interaction strength | K397A;R399A |
| disrupting interaction strength | E365A;D367A |
